Holding throughout (assay): cell-based or functional assay
Assay [1] deals with HIV-1 Env of 6095.V1.C10.SG3 pseudovirus (clade ACD) (HIV-1).
The target in assay [2] is HIV-1 Env of TH966.8.SG3 pseudovirus (clade AE) (HIV-1).
Assay [3] concerns the target HIV-1 Env of PVO.04.SG3 pseudovirus (clade B) (HIV-1).
The target in assay [4] is HIV-1 Env of ZM215.8.SG3 pseudovirus (clade C) (HIV-1).
The target in assay [5] is HIV-1 Env of 6101.10.SG3 pseudovirus (clade B) (HIV-1).
For assay [6], the target named is HIV-1 Env of KER2008.12.SG3 pseudovirus (clade A) (HIV-1).
In assay [7] the target is HIV-1 Env of ZM106.9.SG3 pseudovirus (clade C) (HIV-1).
For assay [8], the target named is HIV-1 Env of YU2.DG.SG3 pseudovirus (clade B) (HIV-1) (UniProt P35961).
For assay [9], the target named is HIV-1 Env of CNE31.SG3 pseudovirus (clade C) (HIV-1).

Several values for one entry are separate records, joined by “and”; a condition that tells them apart may be missing. Equal entries are not always repeated.

Consider 10E8v4 VL Y32F (antibody), for which the IC50, pseudovirus neutralization in [1] is 0.017 µg/mL; in [2], 0.031 µg/mL; in assay [3], 2.25 µg/mL; in assay [4] it was 0.102 µg/mL; in [5], 0.08 µg/mL; in assay [6], over 50 µg/mL. For the same substance, the values for the IC50, pseudovirus neutralization in assay [7], in [8] and in assay [9] were over 50 µg/mL, 2 µg/mL and 3.2 µg/mL, respectively.
Consider 10E8v4 VL Y32I (antibody), for which the IC50, pseudovirus neutralization is 1.3 µg/mL in [1]; 21.4 µg/mL in assay [2]; over 50 µg/mL in assay [3]; over 50 µg/mL in assay [4]; over 50 µg/mL in [5]; over 50 µg/mL in assay [6]. The IC50, pseudovirus neutralization in assay [7], in [8] and in assay [9] was over 50 µg/mL throughout.
As for 10E8v4 VL Y32W (antibody), the IC50, pseudovirus neutralization in [1] was 0.005 µg/mL; in assay [2], 0.029 µg/mL; in assay [3], 1.4 µg/mL; in [4], 0.089 µg/mL; in assay [5], 0.055 µg/mL; in [6], over 50 µg/mL. Further, the IC50, pseudovirus neutralization was over 50 µg/mL in [7], 1.07 µg/mL in assay [8] and 0.719 µg/mL in assay [9].
On to 10E8v4 VL Y32D (antibody), for which the IC50, pseudovirus neutralization in [1] is 1.55 µg/mL; in [2], over 50 µg/mL; in [3], over 50 µg/mL; in assay [4], over 50 µg/mL; in [5], over 50 µg/mL; in [6], over 50 µg/mL. In addition, the IC50, pseudovirus neutralization in assay [7], in [8] and in assay [9] was over 50 µg/mL in each case.
In the case of 10E8v4 VL Y32Q (antibody), the IC50, pseudovirus neutralization in [1] was 0.281 µg/mL; in assay [2] it was 11.5 µg/mL; in assay [3] it was over 50 µg/mL; in assay [4] it was over 50 µg/mL; in assay [5], over 50 µg/mL; in assay [6], over 50 µg/mL. Moreover, the IC50, pseudovirus neutralization in assay [7], in [8] and in [9] was over 50 µg/mL each time.
For 10E8 antibody, the IC50, pseudovirus neutralization in assay [2] is 0.032 µg/mL and 0.023 µg/mL; in assay [3], 2.09 µg/mL and 0.997 µg/mL; in [6] it was over 50 µg/mL; in [7], over 50 µg/mL; in [9] it was 1.19 µg/mL and 0.995 µg/mL.
Turning to 10E8v4 VL Y32A (antibody), the IC50, pseudovirus neutralization in assay [1] was 0.409 µg/mL; in [2] it was 3.53 µg/mL; in [3] it was over 50 µg/mL; in assay [4], 11.7 µg/mL; in assay [5] it was over 50 µg/mL; in assay [6], over 50 µg/mL. Moreover, the IC50, pseudovirus neutralization in [7], in [8] and in assay [9] was over 50 µg/mL throughout.
Take 10E8v4 VL Y32R (antibody): the IC50, pseudovirus neutralization is 0.152 µg/mL in assay [1]; 4.08 µg/mL in assay [2]; over 50 µg/mL in assay [3]; 7.52 µg/mL in assay [4]; over 50 µg/mL in [5]; over 50 µg/mL in assay [6]. The IC50, pseudovirus neutralization in [7], in assay [8] and in assay [9] was over 50 µg/mL in each case.
Take 10E8v4 VL Y32N (antibody): the IC50, pseudovirus neutralization in [1] is 2.92 µg/mL; in assay [2], over 50 µg/mL; in assay [3] it was over 50 µg/mL; in [4], over 50 µg/mL; in assay [5], over 50 µg/mL; in assay [6] it was over 50 µg/mL. Further, the IC50, pseudovirus neutralization in assay [7], in assay [8] and in assay [9] was over 50 µg/mL in each case.
With 10E8v4 VL Y32L (antibody), the IC50, pseudovirus neutralization in assay [1] is 0.593 µg/mL; in assay [2], 4.26 µg/mL; in assay [3] it was over 50 µg/mL; in [4], 8.75 µg/mL; in assay [5], 38.6 µg/mL; in [6], over 50 µg/mL. The IC50, pseudovirus neutralization in [7], in [8] and in [9] was over 50 µg/mL in each case.
On to 10E8v4 VL Y32E (antibody), for which the IC50, pseudovirus neutralization is 0.215 µg/mL in assay [1]; 19 µg/mL in assay [2]; over 50 µg/mL in [3]; over 50 µg/mL in assay [4]; over 50 µg/mL in [5]; over 50 µg/mL in assay [6]. Moreover, the IC50, pseudovirus neutralization in assay [7], in assay [8] and in assay [9] was over 50 µg/mL in each case.
As to 10E8v4 VL Y32T (antibody), the IC50, pseudovirus neutralization in [1] was 0.145 µg/mL; in [2], 3.76 µg/mL; in [3] it was over 50 µg/mL; in [4] it was 9.25 µg/mL; in assay [5], over 50 µg/mL; in [6], over 50 µg/mL. The IC50, pseudovirus neutralization in [7] is over 50 µg/mL; in assay [8], 43.5 µg/mL; in assay [9] it was over 50 µg/mL.
On to 10E8v4 VL Y32P (antibody), for which the IC50, pseudovirus neutralization in assay [1] is 3.2 µg/mL; in assay [2], over 50 µg/mL; in assay [3], over 50 µg/mL; in [4], over 50 µg/mL; in assay [5], over 50 µg/mL; in [6] it was over 50 µg/mL. The IC50, pseudovirus neutralization in [7], in assay [8] and in [9] was over 50 µg/mL throughout.
As to 10E8v4 VL Y32H (antibody), the IC50, pseudovirus neutralization in [1] is 0.032 µg/mL; in assay [2], 0.788 µg/mL; in assay [3], over 50 µg/mL; in [4], 1.39 µg/mL; in [5] it was 7.4 µg/mL; in assay [6] it was over 50 µg/mL. The IC50, pseudovirus neutralization was over 50 µg/mL in assay [7], 8.76 µg/mL in assay [8] and 29.9 µg/mL in assay [9].
Turning to 10E8v4 VL Y32V (antibody), the IC50, pseudovirus neutralization in assay [1] was 0.558 µg/mL; in assay [2], 4.96 µg/mL; in assay [3], over 50 µg/mL; in [4], 28.2 µg/mL; in [5] it was over 50 µg/mL; in [6] it was over 50 µg/mL. Besides, the IC50, pseudovirus neutralization in assay [7], in assay [8] and in assay [9] was over 50 µg/mL in each case.
For 10E8v4 VL Y32K (antibody), the IC50, pseudovirus neutralization was 0.359 µg/mL in [1]; 10.2 µg/mL in assay [2]; over 50 µg/mL in assay [3]; 33 µg/mL in assay [4]; over 50 µg/mL in [5]; over 50 µg/mL in assay [6]. Further, the IC50, pseudovirus neutralization in assay [7], in [8] and in assay [9] was over 50 µg/mL in each case.
As to 10E8v4 VL Y32M (antibody), the IC50, pseudovirus neutralization was 1.03 µg/mL in assay [1]; 29.8 µg/mL in assay [2]; over 50 µg/mL in assay [3]; over 50 µg/mL in assay [4]; over 50 µg/mL in assay [5]; over 50 µg/mL in assay [6]. The IC50, pseudovirus neutralization in [7], in [8] and in assay [9] was over 50 µg/mL throughout.

For the origin of these results see US20190077849A1.
